According to PMC10593751:

Biological target: human IgG1 (human)
Assay: ELISA; immobilized human IgG (hIgG1 or hIgG2) used to pull down CD64; n = 3

| Substance | Kd [nM] |
| --- | --- |
| CD64 engineered at the N-terminus with the CKAAKNK (CK) tissue homing peptide (receptor) | 0.0536 |
| wild-type CD64 (Fc-gamma receptor 1) (from UniProt P12314 16-374) | 0.0589 |
